Experimental data reported in US20230203155A1 (ALMAC DISCOVERY, published 2023).

How the values were obtained:
[1] = target: T1, human ROR1-hFc fusion protein (extracellular domain) (human); experiment: SPR, human ROR1 ECD-Fc on chip;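 note: SPR binding kinetics of VNAR and VNAR-Fc molecules run at a range of concentrations over immobilised target, rate and affinity constants fitted with QDat software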
T1 construct: Whole entry 'human ROR1-Fc (CHO)'; also called hROR1; huROR1-Fc
Protocol: Binding kinetics were determined using a Pioneer Surface Plasmon Resonance (SPR) instrument (SensiQ/Pall ForteBio). […] VNARs and VNAR-Fc molecules were tested at various concentrations and the Ka (M⁻¹s⁻¹), Kd (s⁻¹) and KD (nM) values were determined using QDat software (SensiQ/Pall ForteBio).
Thermal stability assays used Applied Biosystems StepOne Real Time PCR system with the Protein Thermal Shift™ dye kit (Thermo). The assay mix was set up so that the protein was at a final concentration of 20 OA in 20 μL. 5 μL of Thermal Shift™ buffer was added alongside 2.5 uL 8× Thermal Shift™ Dye. Assays were run using the StepOne software and data analysed using Protein Thermal Shift™ software. All data are from first derivative analysis.

[2] = target: T2, recombinant human ROR1 (hROR1), construct not stated (human, UniProt Q01973 30-403, limits assumed); experiment: SPR, hROR1 on chip with competitor P3A1 dimer pre-captured
T2 sequence (Q01973 30-403 limits assumed): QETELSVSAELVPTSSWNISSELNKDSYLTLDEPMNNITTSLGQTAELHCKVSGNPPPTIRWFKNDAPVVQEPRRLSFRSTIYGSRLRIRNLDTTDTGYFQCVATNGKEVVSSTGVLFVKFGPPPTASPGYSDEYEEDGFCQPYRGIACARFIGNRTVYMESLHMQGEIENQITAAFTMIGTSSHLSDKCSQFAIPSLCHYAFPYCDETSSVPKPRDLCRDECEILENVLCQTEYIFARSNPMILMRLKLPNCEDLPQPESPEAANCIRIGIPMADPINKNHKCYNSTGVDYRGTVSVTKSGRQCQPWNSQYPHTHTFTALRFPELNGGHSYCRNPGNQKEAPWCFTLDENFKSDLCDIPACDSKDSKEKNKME

[3] = target: T2, recombinant human ROR1 (hROR1), …; experiment: SPR, hROR1 on chip
Protocol: (§1) Competition of binding studies were completed using SPR. […] FC2 was used as the reference channel. […] Binding kinetics were determined using QDat software.

[4] = target: T2, recombinant human ROR1 (hROR1), …; experiment: SPR, hROR1 on chip; remark: listed apart in the source
Protocol: as §1

[5] = target: T2, recombinant human ROR1 (hROR1), …; experiment: SPR, hROR1 on chip with competitor B1 pre-captured
Protocol: as §1

T1 sequence (chain, as listed by the source limits assumed): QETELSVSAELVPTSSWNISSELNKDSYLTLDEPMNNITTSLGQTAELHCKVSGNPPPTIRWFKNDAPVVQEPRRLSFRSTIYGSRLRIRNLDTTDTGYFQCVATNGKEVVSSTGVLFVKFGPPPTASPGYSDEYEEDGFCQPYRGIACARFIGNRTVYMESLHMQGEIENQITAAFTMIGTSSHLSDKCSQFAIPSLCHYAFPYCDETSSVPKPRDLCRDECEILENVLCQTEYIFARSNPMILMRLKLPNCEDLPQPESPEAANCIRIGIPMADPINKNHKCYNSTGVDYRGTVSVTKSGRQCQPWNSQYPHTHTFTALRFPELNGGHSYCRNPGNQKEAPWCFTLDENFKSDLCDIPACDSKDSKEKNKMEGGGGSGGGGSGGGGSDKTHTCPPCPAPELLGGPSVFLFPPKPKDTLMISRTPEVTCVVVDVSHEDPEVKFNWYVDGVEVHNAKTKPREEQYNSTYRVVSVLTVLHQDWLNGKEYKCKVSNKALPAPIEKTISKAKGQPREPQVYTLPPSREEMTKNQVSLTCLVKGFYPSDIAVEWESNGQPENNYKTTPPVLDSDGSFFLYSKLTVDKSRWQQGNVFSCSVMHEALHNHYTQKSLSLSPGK

| Kd [1] [pM] | koff [1] [s⁻¹] | kon [1] [M⁻¹ s⁻¹] | Binder | further results |
| --- | --- | --- | --- | --- |
| 45900 | 0.0079 | 185000 | B1 G2 (humanised/grafted B1) with His6myc tag (VNAR, VNAR) VNAR: TRVDQSPSSLSASVGDRVTITCVLTGANYGLASTYWYRKNPGSSNQERISISGRYSESVNKRTMSFTLTISSLQPEDSATYYCRAYPWGAGAPWLVQWYDGAGTKVEIKQ | – |
| 770 | 5.54e-05 | 77400 | B1 humanised V7 with His6myc tag (VNAR, VNAR; also called B1V7) VNAR: ASVDQSPSSASASVGDRLTITCVVTGANYGLAATYWYRKNPGSSNQERISISGRYSESVNKRTMSFTLTISSLQPEDSATYYCKAYPWGAGAPWLVQWYDGAGTKLEVKQ | – |
| 82800 | 0.0162 | 220000 | B1 G1 (humanised/grafted B1) with His6myc tag (VNAR, VNAR) VNAR: TRVDQSPSSLSASVGDRVTITCVLTGANYGLASTYWYRKNPGSSNKEQISISGRYSESVNKGTKSFTLTISSLQPEDSATYYCRAYPWGAGAPWLVQWYDGAGTKVEIKQ | – |
| 740 | 3.85e-05 | 52000 | B1 humanised V5 with His6myc tag (VNAR, VNAR; also called B1V5) VNAR: ASVDQSPSSLSASVGDRVTITCVVTGANYGLAATYWYRKNPGSSNQERISISGRYSESVNKRTMSFTLTISSLQPEDSATYYCKAYPWGAGAPWLVQWYDGAGTKVEIKQ | – |
| 8920 | 0.00567 | 636000 | D3 ADV1 dimer (VNAR, Listing names it 'D3V1 dimer'; also called D3V1 dimer) ASVNQSPSSLSASVGDRVTITCVLTDTSYGLYSTSWFRKNPGTTDWERMSIGGRYSESVNKGAKSFTLTISSLQPEDSATYYCKAQSGMAISTGSGHGYNWYDGAGTKVEIKGGGGSGGGGSGGGGSGGGGSGGGGSASVNQSPSSLSASVGDRVTITCVLTDTSYGLYSTSWFRKNPGTTDWERMSIGGRYSESVNKGAKSFTLTISSLQPEDSATYYCKAQSGMAISTGSGHGYNWYDGAGTKVEIKQASGAHHHHHHGAEFEQKLISEEDL | – |
| 26200 | 0.016 | 609000 | D3 ADV2 dimer (VNAR, Listing names it 'D3V2 dimer'; also called D3V2 dimer) TRVDQSPSSLSASVGDRVTITCVLTDTSYGLYSTSWFRKNPGTTDWERMSIGGRYSESVNKGAKSFTLTISSLQPEDSATYYCKAQSGMAISTGSGHGYNWYDGAGTKVEIKGGGGSGGGGSGGGGSGGGGSGGGGSTRVDQSPSSLSASVGDRVTITCVLTDTSYGLYSTSWFRKNPGTTDWERMSIGGRYSESVNKGAKSFTLTISSLQPEDSATYYCKAQSGMAISTGSGHGYNWYDGAGTKVEIKQASGAHHHHHHGAEFEQKLISEEDL | – |
| – | – | – | UC961 based mAb (antibody, human IgG1, kappa, V domains shown, also called UC961-like; mAb based on UC-961) VH: QVQLQESGPGLVKPSQTLSLTCTVSGYAFTAYNIHWVRQAPGQGLEWMGSFDPYDGGSSYNQKFKDRLTISKDTSKNQVVLTMTNMDPVDTATYYCARGWYYFDYWGHGTLVTVSS VL: DIVMTQTPLSLPVTPGEPASISCRASKSISKYLAWYQQKPGQAPRLLIYSGSTLQSGIPPRFSGSGTGTDFTLTINNIESEDAAYYFCQQHDESPYTFGEGTKVEIKR | Kd [2]: 81 pM; koff [2]: 0.000444 s⁻¹; kon [2]: 5.48e+06 M⁻¹ s⁻¹; Kd [3]: 78 pM; koff [3]: 0.000451 s⁻¹; kon [3]: 5.77e+06 M⁻¹ s⁻¹ |
| 430 | 0.00147 | 4.3e+06 | P3A1 G1 dimer (VNAR, humanised VNAR dimer) TRVDQSPSSLSASVGDRVTITCVLTDTSYGLYSTYWYRKNPGSSNKEQISISGRYSESVNKGTKSFTLTISSLQPEDSATYYCRAREARHPWLRQWYDGAGTKVEIKGGGGSGGGGSGGGGSGGGGSGGGGSTRVDQSPSSLSASVGDRVTITCVLTDTSYGLYSTYWYRKNPGSSNKEQISISGRYSESVNKGTKSFTLTISSLQPEDSATYYCRAREARHPWLRQWYDGAGTKVEIKQASGAHHHHHHGAEFEQKLISEEDL | – |
| 18900 | ~0.0163 | 1.85e+06 | D3 humanised EL V2 with His6myc tag (VNAR, VNAR; also called D3 EL V2) VNAR: ASVNQSPSSLSASVGDRVTITCVLTDTSYGLYSTSWFRKNPGTTDWERMSIGGRYVESVNKRAKSFTLTISSLQPEDFATYYCKAQSGMAISTGSGHGYNWYDGAGTKVEIKQ | – |
| 51600 | 0.00236 | 45800 | D3 humanised ADV2 with His6myc tag (VNAR, VNAR; also called D3 AD V2) VNAR: TRVDQSPSSLSASVGDRVTITCVLTDTSYGLYSTSWFRKNPGTTDWERMSIGGRYSESVNKGAKSFTLTISSLQPEDSATYYCKAQSGMAISTGSGHGYNWYDGAGTKVEIKQ | – |
| 58500 | ~0.0545 | 1.38e+06 | D3 humanised EL V4 with His6myc tag (VNAR, VNAR; also called D3 EL V4) VNAR: ASVNQSPSSLSASVGDRVTITCVLTDTSYGLYSTSWYQQKPGTTDWERMSIGGRYVESVNKRAKSFTLTISSLQPEDFATYYCKAQSGMAISTGSGHGYNWYDGAGTKVEIKQ | – |
| – | – | – | ROR1 2A2 mAb (BioLegend) (antibody, V domains shown) VH: QVQLQQSGAELVRPGASVTLSCKASGYTFSDYEMHWVIQTPVHGLEWIGAIDPETGGTAYNQKFKGKAILTADKSSSTAYMELRSLTSEDSAVYYCTGYYDYDSFTYWGQGTLVTVSA VL: DIVMTQSQKIMSTTVGDRVSITCKASQNVDAAVAWYQQKPGQSPKLLIYSASNRYTGVPDRFTGSGSGTDFTLTISNMQSEDLADYFCQQYDIYPYTFGGGTKLEIK | Kd [2]: 231 pM; koff [2]: 0.000322 s⁻¹; kon [2]: 1.39e+06 M⁻¹ s⁻¹; Kd [4]: 210 pM; koff [4]: 0.000211 s⁻¹; kon [4]: 979000 M⁻¹ s⁻¹; Kd [3]: 233 pM; koff [3]: 0.000342 s⁻¹; kon [3]: 1.47e+06 M⁻¹ s⁻¹; Kd [5]: 101 pM; koff [5]: 8.47e-05 s⁻¹; kon [5]: 835000 M⁻¹ s⁻¹ |
| 180 | 0.000846 | 4.78e+06 | P3A1 V1 dimer (VNAR) TRVDQSPSSLSASVGDRVTITCVLTDTSYGLYSTSWFRKNPGTTDWERMSIGGRYVESVNKGAKSFTLTISSLQPEDFATYYCKAREARHPWLRQWYDGAGTKVEIKGGGGSGGGGSGGGGSGGGGSGGGGSTRVDQSPSSLSASVGDRVTITCVLTDTSYGLYSTSWFRKNPGTTDWERMSIGGRYVESVNKGAKSFTLTISSLQPEDFATYYCKAREARHPWLRQWYDGAGTKVEIKQASGAHHHHHHGAEFEQKLISEEDL | – |
| 770 | 0.00119 | 1.88e+06 | P3A1 G2 dimer (VNAR, humanised VNAR dimer) TRVDQSPSSLSASVGDRVTITCVLTDTSYGLYSTYWYRKNPGTTDWERMSIGGRYSESVNKGAKSFTLTISSLQPEDSATYYCRAREARHPWLRQWYDGAGTKVEIKGGGGSGGGGSGGGGSGGGGSGGGGSTRVDQSPSSLSASVGDRVTITCVLTDTSYGLYSTYWYRKNPGTTDWERMSIGGRYSESVNKGAKSFTLTISSLQPEDSATYYCRAREARHPWLRQWYDGAGTKVEIKQASGAHHHHHHGAEFEQKLISEEDL | – |
